Values of other authors, collected in patent publication US10888616B2 (Latitude Pharmaceuticals, Inc., priority 2015, dated 2021).

What was measured:
[1] = acidic solution (pH 2-4), within 24 hours at 37° C.

Question: What does the source list for “Glucagon: single-chain polypeptide of 29 amino acid residues, sequence in FIG. 1 (SEQ ID NO: 1)”?
Answer: solubility in pure water or alcohol: insoluble; gelling in water (pH 3 or lower): will aggregate to form a gel within hours; solubility in water (physiological pH (pH 4-8)): insoluble; glucagon broken down into degradation products [1]: 5-70%
